The results in this text go back to US20050112126A1 (Genentech, published 2005).

“And” between values parts separate entries of the source, which are not always exact repeats. Identical values can stand only once. Like-named read-outs stand apart in the source and are kept apart here.

For test [1], the target named is T1, VEGF (human, UniProt P15692-4 27-191, limits assumed).
T1 construct: Biotinylated in the KDR-IgG ELISA, amine-coupled to the chip in BIAcore; also called biotinylated VEGF; vascular endothelial growth factor
Nature of the test: competition ELISA (biotinylated VEGF to KDR-IgG).

Test [2] has as its target T1, VEGF. As to the kind of experiment: competition ELISA (biotinylated VEGF to KDR-IgG). How it is done: (§1) Standards (6.9-440 ng/ml chimeric F(ab)) and two-fold serial of samples were incubated with 2 nM biotinylated VEGF for 1 h in tubes. The solutions from the tubes were then transferred to the ELISA plates and incubated for 1 h. […] Titration curves were fit with a four-parameter nonlinear regression curve-fitting program (KaleidaGraph, Synergy Software, Reading Pa.). […] Assays for full-length IgG were the same as for the F(ab)s except that the assay buffer contained 10% human serum.
The source holds these as a separate data set. For orientation: In an ELISA, binding on a coated surface is turned into a signal by an enzyme label.

Test [3] addresses T1, VEGF. Nature of the test: competition ELISA (biotinylated VEGF to KDR-IgG), 10% human serum. As for the experimental part: as §1
The target of test [4] is T1, VEGF. As to the kind of experiment: BIAcore-2000 SPR, Fab over immobilized VEGF, 25 C; off-rate near detection limit. As for the experimental part: (§2) BIAcore Analysis: The VEGF-binding affinities of Fab fragments were calculated from association and dissociation rate constants measured using a BIAcore-2000™ surface plasmon resonance system (BIAcore, Inc., Piscataway, N.J.). A biosensor chip was activated for covalent coupling of VEGF using N-ethyl-N′-(3-dimethylaminopropyl)-carbodiimide hydrochloride (EDC) and N-hydroxysuccinimide (NHS) according to the supplier's (BIAcore, Inc., Piscataway, N.J.) instructions. VEGF was buffered exchanged into 20 mM sodium acetate, pH 4.8 and diluted to approximately 50 μg/mL. An aliquot (35 μL) was injected at a flow rate of 2 μL/min to achieve approximately 700-1400 response units (RU) of coupled protein. Finally, 1 M ethanolamine was injected as a blocking agent.
(§3) For kinetics measurements, two-fold serial dilutions of Fab were injected in PBS/TWEEN™ buffer (0.05% TWEEN 20™ in phosphate buffered saline) at 25° C. at a flow rate of 10 μL/min. […] Equilibrium dissociation constants, Kd's from surface plasmon resonance (SPR) measurements were calculated as koff/kon.
For orientation: Surface plasmon resonance follows binding to a sensor surface in real time, without labels.

Test [5] has as its target T1, VEGF. As to the kind of experiment: BIAcore-2000 SPR, Fab over immobilized VEGF, 25 C. How it is done:
as §2, §3
Target sequence in this assay (P15692 other isoform, or with tags, fused parts or gaps limits assumed): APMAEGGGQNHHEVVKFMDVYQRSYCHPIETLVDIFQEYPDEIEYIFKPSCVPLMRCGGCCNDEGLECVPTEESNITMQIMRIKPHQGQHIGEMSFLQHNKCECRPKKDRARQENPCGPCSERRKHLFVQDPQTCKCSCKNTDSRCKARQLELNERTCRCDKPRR

Test [6] concerns the target T1, VEGF. As to the kind of experiment: BIAcore-2000 SPR, relative to Y0192. How it is done: as §2, §3
The target in test [7] is T2, rhVEGF165 (human, UniProt P15692 27-191). As to the kind of experiment: cell-based or functional assay.
For test [8], the target named is T2, rhVEGF165. Nature of the test: cell-based or functional assay. This is another data set of the same source.

B1: F(ab)-1 (Fab, V domains shown)
VH: EVQLVESGGGLVQPGGSLRLSCAASGYTFTNYGMNWVRQAPGKGLEWVGWINTYTGEPTYAADFKRRFTISRDNSKNTLYLQMNSLRAEDTAVYYCARYPHYYGSSHWYFDVWGQGTLVTVSS
VL: DIQMTQSPSSLSASVGDRVTITCSASQDISNYLNWYQQKPGKAPKLLIYFTSSLHSGVPSRFSGSGSGTDFTLTISSLQPEDFATYYCQQYSTVPWTFGQGTKVEIK
In the test with VEGF [1], B1 had an EC50 F(ab)-X / EC50 chimeric F(ab) greater than 1350 and a fold reduction of binding affinity from the chimeric F(ab) greater than 1000 fold.

B2: F(ab)-8 (Fab, V domains shown)
VH: EVQLVESGGGLVQPGGSLRLSCAASGYTFTNYGMNWVRQAPGKGLEWVGWINTYTGEPTYAADFKRRFTFSLDTSKNTAYLQMNSLRAEDTAVYYCARYPHYYGSSHWYFDVWGQGTLVTVSS
VL: DIQMTQSPSSLSASVGDRVTITCSASQDISNYLNWYQQKPGKAPKVLIYFTSSLHSGVPSRFSGSGSGTDFTLTISSLQPEDFATYYCQQYSTVPWTFGQGTKVEIK
notes: F(ab)-5 with IleH69Phe and LeuH78Ala; Kabat numbers; Fab with human CH1 and CL
B2: in the test with VEGF [2], the “EC50 F(ab)-X / EC50 chimeric F(ab)” value was 9.6 ratio and the “fold improvement in binding vs F(ab)-5” value turned out to be 8 fold.

B3: F(ab)-9 (Fab, V domains shown)
VH: EVQLVESGGGLVQPGGSLRLSCAASGYTFTNYGMNWVRQAPGKGLEWVAWINTYTGEPTYAADFKRRFTFSLDTSKNTAYLQMNSLRAEDTAVYYCARYPHYYGSSHWYFDVWGQGTLVTVSS
VL: DIQMTQSPSSLSASVGDRVTITCSASQDISNYLNWYQQKPGKAPKVLIYFTSSLHSGVPSRFSGSGSGTDFTLTISSLQPEDFATYYCQQYSTVPWTFGQGTKVEIK
notes: F(ab)-8 with GlyH49Ala; Kabat numbers; Fab with human CH1 and CL
Turning to B3, in the test with VEGF [2], the “EC50 F(ab)-X / EC50 chimeric F(ab)” value was greater than 150 ratio and the “fold reduction in binding vs F(ab)-8” value worked out at 15 fold.

B4: chIgG1 (antibody, V domains shown)
VH: EIQLVQSGPELKQPGETVRISCKASGYTFTNYGMNWVKQAPGKGLKWMGWINTYTGEPTYAADFKRRFTFSLETSASTAYLQISNLKNDDTATYFCAKYPHYYGSSHWYFDVWGAGTTVTVSS
VL: DIQMTQTTSSLSASLGDRVIISCSASQDISNYLNWYQQKPDGTVKVLIYFTSSLHSGVPSRFSGSGSGTDYSLTISNLEPEDIATYYCQQYSTVPWTFGGGTKLEIKR
notes: Murine A4.6.1 VL and VH fused to human kappa CL and human IgG1 heavy chain constant domains; also called chimeric IgG1
Consider B4, for which, in the test with VEGF [3], the EC50 is 0.113 µg/mL and 0.75 nM; the “IgG1/chIgG1 (EC50 ratio)” value was 1 ratio.

B5: muMAb VEGF A.4.6.1 (antibody, V domains shown)
VH: EIQLVQSGPELKQPGETVRISCKASGYTFTNYGMNWVKQAPGKGLKWMGWINTYTGEPTYAADFKRRFTFSLETSASTAYLQISNLKNDDTATYFCAKYPHYYGSSHWYFDVWGAGTTVTVSS
VL: DIQMTQTTSSLSASLGDRVIISCSASQDISNYLNWYQQKPDGTVKVLIYFTSSLHSGVPSRFSGSGSGTDYSLTISNLEPEDIATYYCQQYSTVPWTFGGGTKLEIKR
notes: Original murine IgG1 antibody purified from ascites; also called murIgG1; murine mAb A4.6.1
For the molecule B5, the “IgG1/chIgG1 (EC50 ratio)” value in the test with VEGF [3] turned out to be 0.759 ratio.

B6: Y0238-3 (Fab, V domains shown)
VH: EVQLVESGGGLVQPGGSLRLSCAASGYTFTNYGINWVRQAPGKGLEWVGWINTYTGEPTYAADFKRRFTFSLDTSKSTAYLQMNSLRAEDTAVYYCAKYPYYYGTSHWYFDVWGQGTL
VL: DIQLTQSPSSLSASVGDRVTITCRANEQLSNYLNWYQQKPGKAPKVLIYFTSSLHSGVPSRFSGSGSGTDFTLTISSLQPEDFATYYCQQYSTVPWTFGQGTKVEIKR
notes: Soluble Fab
Take B6: the koff with VEGF [4] is no more than 4e-06 s⁻¹. In the test with VEGF [5], this molecule displayed a Kd of no more than 0.2 nM and a kon of 17000 M⁻¹ s⁻¹. In the test with VEGF [6], the “Kd (wt)/Kd (mut)” value was no less than 14 ratio.

B7: Y0238-7 (Fab, V domains shown)
VH: EVQLVESGGGLVQPGGSLRLSCAASGYTFTNYGINWVRQAPGKGLEWVGWINTYTGEPTYAADFKRRFTFSLDTSKSTAYLQMNSLRAEDTAVYYCAKYPYYWGTSHWYFDVWGQGTL
VL: DIQLTQSPSSLSASVGDRVTITCRANEQLSNYLNWYQQKPGKAPKVLIYFTSSLHSGVPSRFSGSGSGTDFTLTISSLQPEDFATYYCQQYSTVPWTFGQGTKVEIKR
notes: From library YC-81 on the pY0192 template; Soluble Fab
Take B7: in the test with VEGF [4], the off-rate (koff) was no more than 6e-06 s⁻¹. Also, in the test with VEGF [5], the dissociation constant (Kd) was no more than 0.4 nM and the on-rate constant (kon) was determined as 15000 M⁻¹ s⁻¹. Further, the “Kd (wt)/Kd (mut)” value with VEGF [6] is no less than 7.3 ratio.

B8: Y0313-1 (Fab, V domains shown)
VH: EVQLVESGGGLVQPGGSLRLSCAASGYDFTHYGMNWVRQAPGKGLEWVGWINTYTGEPTYAADFKRRFTFSLDTSKSTAYLQMNSLRAEDTAVYYCAKYPYYYGTSHWYFDVWGQGTL
VL: DIQLTQSPSSLSASVGDRVTITCRANEQLSNYLNWYQQKPGKAPKVLIYFTSSLHSGVPSRFSGSGSGTDFTLTISSLQPEDFATYYCQQYSTVPWTFGQGTKVEIKR
notes: Soluble Fab; Y0243-1 with VH3 H101Y and S105T
For the molecule B8, the koff with VEGF [4] was no more than 5.4e-06 s⁻¹. In the test with VEGF [5], this molecule yielded a Kd of no more than 0.15 nM and a kon of 35000 M⁻¹ s⁻¹. In the test with rhVEGF165 [7], the “fold potency over the wild-type Fab (Y0192), inhibition of VEGF-induced HuVEC growth” value was greater than 30 fold. For the same molecule, in the test with rhVEGF165 [8], the “IC50 (read off the curve)” value is roughly 0.5 nM. Further, the “Kd (wt)/Kd (mut)” value in the test with VEGF [6] was no less than 20 ratio.

B9: Y0313-3 (Fab, V domains shown)
VH: EVQLVESGGGLVQPGGSLRLSCAASGYTFTNYGINWVRQAPGKGLEWVGWINTYTGEPTYAADFKRRFTFSLDTSKSTAYLQMNSLRAEDTAVYYCAKYPYYYGSSHWYFDVWGQGTL
VL: DIQLTQSPSSLSASVGDRVTITCRANEQLSNYLNWYQQKPGKAPKVLIYFTSSLHSGVPSRFSGSGSGTDFTLTISSLQPEDFATYYCQQYSTVPWTFGQGTKVEIKR
notes: Soluble Fab
In the test with VEGF [5], B9 returned a Kd of 0.65 nM, a koff of 8.1e-06 s⁻¹ and a kon of 12000 M⁻¹ s⁻¹. Besides, the “Kd (wt)/Kd (mut)” value in the test with VEGF [6] amounted to 4.5 ratio.

In general, EC50 refers to the concentration at which the effect is half-maximal. One may read the koff as the first-order rate constant of dissociation. A lower koff goes with a long-lived complex. Usually Kd stands for the constant that tells how readily two partners part at equilibrium. A higher Kd goes with weaker binding. The kon is the rate constant with which the complex forms.
